Source: patent US20150322137A1 (EVEC, published 2015)

B1: EV046120 (antibody, human IgG1, lambda, V domains shown)
VH: EVQLVESGGGLVKPGGSLRLSCAASGFTFSSYSMNWVRQAPGKGLEWVSSISSSSSYIYYADSLKGRFTVSRDNAKKSLYLQMNSLRAEDTAVYYCARVDYGTNSEVGRFDPWGQGTLVTVSS
VL: QSVLTQPPSVSGTPGQRVTISCTGSSSNIGAGYAVHWYQQLPGTAPKLLIYDSINRPSGVPDRFSGSKSGTSASLAITGLQTEDEADYYCHSYDRSLSGSVFGGGTKLTVLG
B2: EV046113 (antibody, human IgG1, kappa, V domains shown)
VH: QVQLVESGGGLVRPGGSLRLSCAASGFTFSDYFMTWIRQAPGKGLEWVSYINSIGSVIFYADSVEGRFTVSRDNTMKSLFLQMNSLTAEDTAVYYCARSCRISYGASGGFSCGMDVWGQGTPVTVSS
VL: DIQMTQSPSSLSASVGDRVTITCQASQSIRENINWYQQKTGKAPKLLIYDASILETGVPSRFSGSGSGTHFTFTISSLQPEDMATYYCQQYHHLITFGQGTRLDIKR

What was measured:
[1] = molecular target: T1, F protein of human metapneumovirus strain JPS05-21 (type B2), on infectious virus (human metapneumovirus, strain JPS05-21 …); experiment: cell-based or functional assay
[2] = molecular target: T2, F protein of human metapneumovirus strain JPS03-180 (type A1), on infectious virus (human metapneumovirus, strain JPS03-180 …); experiment: cell-based or functional assay
[3] = molecular target: T3, F protein of human metapneumovirus strain JPS02-76 (type B1), on infectious virus (human metapneumovirus, strain JPS02-76 …, UniProt Q6WB98 19-539); experiment: cell-based or functional assay
[4] = molecular target: T1, F protein of human metapneumovirus …; experiment: cell-based or functional assay; remark: listed apart in the source
[5] = molecular target: T2, F protein of human metapneumovirus …; experiment: cell-based or functional assay; remark: listed apart in the source
[6] = molecular target: T4, F protein of human metapneumovirus strain JPS03-178 (type A2), on infectious virus (human metapneumovirus, strain JPS03-178 …); experiment: cell-based or functional assay
[7] = molecular target: T3, F protein of human metapneumovirus …; experiment: cell-based or functional assay; remark: listed apart in the source
[8] = molecular target: T1, F protein of human metapneumovirus …; experiment: cell-based or functional assay; remark: listed apart in the source
[9] = molecular target: T2, F protein of human metapneumovirus …; experiment: cell-based or functional assay; remark: listed apart in the source
[10] = molecular target: T4, F protein of human metapneumovirus …; experiment: cell-based or functional assay; remark: listed apart in the source
[11] = molecular target: T3, F protein of human metapneumovirus …; experiment: cell-based or functional assay; remark: listed apart in the source
[12] = molecular target: T1, F protein of human metapneumovirus …; experiment: cell-based or functional assay; remark: listed apart in the source
[13] = molecular target: T2, F protein of human metapneumovirus …; experiment: cell-based or functional assay; remark: listed apart in the source
[14] = molecular target: T4, F protein of human metapneumovirus …; experiment: cell-based or functional assay; remark: listed apart in the source
[15] = molecular target: T3, F protein of human metapneumovirus …; experiment: cell-based or functional assay; remark: listed apart in the source
[16] = molecular target: T3, F protein of human metapneumovirus …; experiment: cell-based or functional assay; remark: listed apart in the source
[17] = molecular target: HA-V5-Full, hMPV (JPS02-76) FP with HA-Tag downstream of the signal peptide and linker and V5-Tag do (human metapneumovirus, strain JPS02-76 …); experiment: cell fluorescent immunostaining, fixed transfected CHO-K1 cells
[18] = molecular target: FP-TM(-)-His, His-Tag-added hMPV (JPS02-76) FP lacking the transmembrane region (amino acid residues 491 to … (human metapneumovirus, strain JPS02-76 …, UniProt Q6WB98 19-490)); experiment: SPR, Biacore T-200; antibody captured by anti-human IgG, FP-TM(-)-His as analyte

Binder | IC50, neutralizing activity (hMPV infection of LLC-MK2 cells) [1] | IC50, neutralizing activity (hMPV infection of LLC-MK2 cells) [2] | IC50, neutralizing activity (hMPV infection of LLC-MK2 cells; GraphPad Prism 6) [4] | IC50, neutralizing activity (hMPV infection of LLC-MK2 cells; GraphPad Prism 6) [5] | IC50, neutralizing activity (hMPV infection of LLC-MK2 cells; GraphPad Prism 6) [6] | IC60, neutralizing activity (hMPV infection of LLC-MK2 cells; GraphPad Prism 6) [7] | IC60, neutralizing activity (hMPV infection of LLC-MK2 cells; GraphPad Prism 6) [8] | IC60, neutralizing activity (hMPV infection of LLC-MK2 cells; GraphPad Prism 6) [9] | IC60, neutralizing activity (hMPV infection of LLC-MK2 cells; GraphPad Prism 6) [10] | IC90, neutralizing activity (hMPV infection of LLC-MK2 cells; GraphPad Prism 6) [11] | IC90, neutralizing activity (hMPV infection of LLC-MK2 cells; GraphPad Prism 6) [12] | IC90, neutralizing activity (hMPV infection of LLC-MK2 cells; GraphPad Prism 6) [13] | IC90, neutralizing activity (hMPV infection of LLC-MK2 cells; GraphPad Prism 6) [14] | IC50, cell-to-cell spread inhibitory activity (LLC-MK2 cells stably expressing TMPRSS2) [15] | IC90, cell-to-cell spread inhibitory activity (LLC-MK2 cells stably expressing TMPRSS2) [15] | also measured
B1 | 0.24 µg/mL | 0.32 µg/mL | 249 ng/mL | 300 ng/mL | 97.1 ng/mL | 344 ng/mL | 301 ng/mL | 421 ng/mL | 138 ng/mL | 1650 ng/mL | 694 ng/mL | 1880 ng/mL | 653 ng/mL | 13.2 ng/mL | 66.9 ng/mL | IC50, neutralizing activity (hMPV infection of LLC-MK2 cells; GraphPad Prism 6) [3]: 241 ng/mL
B2 | 0.39 µg/mL | 0.38 µg/mL | 491 ng/mL | 418 ng/mL | 645 ng/mL | 819 ng/mL | 652 ng/mL | 522 ng/mL | 760 ng/mL | 1480 ng/mL | 2290 ng/mL | 1390 ng/mL | 1560 ng/mL | 108 ng/mL | 707 ng/mL | IC50, neutralizing activity (hMPV infection of LLC-MK2 cells) [16]: 0.68 µg/mL; binding result [17]: binds; Kd [18]: 0.265 nM; koff [18]: 0.000123 s⁻¹; kon [18]: 463000 M⁻¹ s⁻¹
